Laboratory results from patent US10758526B2, “Combination therapies using agents that target tumor-associated stroma or tumor cells and other pathways” (BIOMED VALLEY DISCOVERIES, INC., priority 2014, dated 2020).
Positions count from the first letter of the chain named.

Key:
[1] = tested on: DLD-1 colorectal adenocarcinoma xenograft; experiment: Efficacy of M830 alone and in combination in the DLD-1 colorectal adenocarcinoma xenograft model; assay type: in vivo, mice; settings: for % Tumor Reduction vs. Vehicle at Day 21 / % Tumor Reduction vs. combination partner at Day (#): DLD1 Colon; for % Tumor Reduction vs. Vehicle at Day 21: 3 times per week; for % Tumor Reduction vs. combination partner at Day (#): Day 21; for combination compared with any agent alone / efficacy against DLD-1 cancer cells in the xenograft model: first study
Procedure: Tumor weights were calculated following surgical removal. […] Irinotecan was given once per week at 60 mg/kg i.v. and bevacizumab was dosed at 5 mg/kg i.p., three times per week.
In a second study, treatment was initiated with a large tumor volume of approximately 170 mm^3. M830 alone or in combinations with bevacizumab, irinotecan, or both, was given as a loading dose of 20 mg/kg followed by 5 mg/kg three times per week. The doses of bevacizumab and irinotecan were the same as in the first study. An additional group received a combination of bevacizumab and irinotecan without the M830 antibody.

[2] = tested on: H460 non-small cell lung carcinoma xenograft; experiment: Efficacy of M830 in the H460 non-small cell lung carcinoma xenograft model; assay type: in vivo, athymic nude mice; settings: for % Tumor Reduction vs. Vehicle at Day 21: 3 times per week; for % Tumor Reduction vs. combination partner at Day (#): Day 32
Procedure: Animals were monitored for regression responses.
The statistical tests were not adjusted for multiple comparisons.
Cultured H460 cells were harvested during exponential growth and resuspended in phosphate buffered saline at a concentration of 1×10^8 cells/mL. 1.0×10^7 tumor cells were injected subcutaneously into the flank of athymic nude mice. Animals were euthanized when tumors reached the pre-determined volume endpoint of 2000 mm^3 or on the final day (Day 88), whichever came first.

[3] = molecular target: T1, mTEM8-Fc (Mus musculus, UniProt Q9CZ52); experiment: Biocore affinity measurement of anti-TEM8 Fabs, mTEM8-Fc; assay type: binding
T1 construct: Fc
T1 sequence (Q9CZ52 31-319 limits assumed): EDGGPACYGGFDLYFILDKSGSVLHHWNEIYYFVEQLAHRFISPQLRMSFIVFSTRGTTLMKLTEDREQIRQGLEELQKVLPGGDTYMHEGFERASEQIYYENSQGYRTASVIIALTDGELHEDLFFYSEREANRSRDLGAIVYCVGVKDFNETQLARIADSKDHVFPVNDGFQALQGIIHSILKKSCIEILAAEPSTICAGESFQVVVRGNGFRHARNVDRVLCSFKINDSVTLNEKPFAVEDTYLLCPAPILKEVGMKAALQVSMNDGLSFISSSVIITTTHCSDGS

[4] = molecular target: T2, hTEM8-AP (Homo sapiens, UniProt Q9H6X2); experiment: Biocore affinity measurement of anti-TEM8 Fabs, hTEM8-AP; assay type: binding
T2 sequence (Q9H6X2 33-321 limits assumed): T1 sequence (Q9CZ52 31-319 limits assumed) with R40K, S104R, A241S

[5] = tested on: MC38 colon carcinoma liver metastasis; experiment: Efficacy of M830 in MC38 colon carcinoma liver metastasis model; assay type: in vivo, C57BL/6 mice
Description: C57BL/6 mice were challenged with MC38 colon carcinoma liver metastasis by intrasplenic injections of cultured cells.

[6] = Pharmacokinetics of TEM8 antibodies in mouse, single dose; assay type: in vivo
Description: (§1) Tables 8 and 9 show pharmacokinetic properties of TEM8 antibodies according to the present invention in mouse for single dose (Table 8) and multiple dose (Table 9) treatments.

[7] = tested on: HCT116 colorectal carcinoma xenograft; experiment: Efficacy of TEM8 antibodies in the HCT116 colorectal carcinoma xenograft model; assay type: in vivo, mice; settings: HCT116 Colon; M830 alone; IP, 3 times per week; treatment initiated at 60-80 mm^3
Procedure: Tumor cells were cultured in RPMI-1640 medium supplemented with 10% fetal bovine serum, 2 mM glutamine, 100 units/mL penicillin G sodium, 100 μg/mL streptomycin sulfate, and 25 μg/mL gentamicin. The tumor cells were grown in tissue culture flasks in a humidified incubator at 37° C., in an atmosphere of 5% CO2 and 95% air.
2.5×10^6 to 5×10^6 HCT116 tumor cells were injected subcutaneously into the flank of mice. Tumor weights were calculated following surgical removal. Treatment was initiated when tumor volume reached 60-80 mm^3. Dosing volume was 10 mL/kg (0.2 mL/20 g mouse).
TEM8 Ab (hIgG1) doses were 5 and 15 mg/kg, three times per week, for 3 weeks. Bevacizumab was dosed at 5 mg/kg, twice per week, for 3 weeks. FIG. 1B and FIG. 1D show mean tumor growth and percent body weight change for each group, respectively, over the time course of the study.

[8] = tested on: UACC melanoma cells; experiment: TEM8 antibody efficacy in UACC melanoma model; assay type: in vivo, mice
Procedure: UACC melanoma cells were cultured and injected subcutaneously into mice. Treatment was initiated with a tumor volume of 50 mm^3, and treatment groups consisted of one of four TEM8 antibodies (M825, M830, M863, and M822), each dosed at 15 mg/kg, 3 times per week for 3-4 weeks.

[9] = Pharmacokinetics of TEM8 antibodies in mouse, multiple dose; assay type: in vivo
Description: as §1

[10] = Group 7: M830 in combination with paclitaxel, n=10
[11] = H460 Lung, combination partner Paclitaxel
[12] = M830 15 mg/kg IP in combination with bevacizumab 5 mg/kg IP
[13] = M830 in combination with bevacizumab, n=10
[14] = combination of M830 and paclitaxel

B1: M830: TEM8 monoclonal antibody (hIgG1), VH SEQ ID NO:5 and VL SEQ ID NO:6 (antibody, V domains shown)
VH: EVQLVESGGGVVQPGRSVRLSCAASGFTFSTYTMHWVRQAPGKGLEWVAIISNDGSNKYYADPVRGRFTISRDNSKNTLYLQMNSLRAEDTAVYYCVRGSSWYRGNWFDPWGQGTLVTVSS
VL: DIQMTQSPSSLSASVGDRVTIACRASQTISRYLNWYQQKPGKAPKLLIYAASSLQSGVSSRFSGSGSGTEFTLTISSLQPEDFATYFCQQTYSPPITFGQGTRLEIKR
modifications: TEM830 mAb VH; TEM830 mAb VL
In the case of B1, the “% Tumor Reduction vs. Vehicle at Day 21” value ([1]; M830 alone, IP) is reported as 68%, the “% Tumor Reduction vs. combination partner at Day (#)” value ([1]; combination partner Bevacizumab) is reported as 48% (21) and the “% Tumor Reduction vs. Vehicle at Day 21” value ([1]; combination partner Bevacizumab, M830 IP) is reported as 86%. The “% Tumor Reduction vs. combination partner at Day (#)” value ([1]; combination partner Irinotecan) was 53% (21), the “% Tumor Reduction vs. Vehicle at Day 21” value ([1]; combination partner Irinotecan, M830 IP, treatment initiated at about 50 mm^3) was 86% and the “combination compared with any agent alone” value ([1]; combination M830/bevacizumab) was “more effective than any agent alone”. For the same molecule, the “efficacy against DLD-1 cancer cells in the xenograft model” value ([1]; combination M830/bevacizumab) was “effective”, the “combination compared with any agent alone” value ([1]; combination M830/irinotecan) was “more effective than any agent alone” and the “efficacy against DLD-1 cancer cells in the xenograft model” value ([1]; combination M830/irinotecan) was “effective”. The “triple combination compared with M830/bevacizumab combination” value ([1]; second study, M830 with bevacizumab and irinotecan) was “did not outperform the M830/bevacizumab combination therapy”, the TGD ([2]; Group 7: M830 15 mg/kg IP in combination with paclitaxel 30 mg/kg IV, maximum possible TGD 65.2 days (286%) for the 88-day study) was “maximum TGD” and the regression responses ([2]; Group 7: M830 15 mg/kg IP in combination with paclitaxel 30 mg/kg IV, n=10) was 90%. For the same molecule, the “CRs (complete regressions)” value [2, 10] was “seven”, the “PRs (partial regressions)” value [2, 10] was “two” and the “TFS (tumor-free survivors) at study end” value [2, 10] was “three”. For the same molecule, the “% Tumor Reduction vs. Vehicle at Day 21” value ([2]; H460 Lung, M830 alone, IP) was 62%, the “% Tumor Reduction vs. combination partner at Day (#)” value ([2]; H460 Lung, combination partner Bevacizumab) was 58.5% (32) and the “% Tumor Reduction vs. Vehicle at Day 21” value ([2]; H460 Lung, combination partner Bevacizumab, M830 IP) was 94.5%. The “regression (in cell of % Tumor Reduction vs. Vehicle at Day 21)” value [2, 11] was −61%, the “% Tumor Reduction vs. combination partner at Day (#)” value [2, 11] was 94% (32) and the “% Tumor Reduction vs. Vehicle at Day 21” value ([2]; H460 Lung, combination partner Paclitaxel, M830 IP, treatment initiated at 60-80 mm^3) was greater than 100%. The “% TGD” value [2, 12] was 146%, the TGD [2, 12] was 33.2 days and the “CRs (complete regressions)” value [2, 13] was 3. The “PR (partial regressions)” value [2, 13] was 1, the “TFS (tumor-free survivors) at study end” value [2, 13] was “three” and the regression responses [2, 13] was 40%. The “rank of activity among regimens” value ([2]; M830 in combination with paclitaxel) was “most active treatment regimen tested”, the “combination compared with either agent alone” value [2, 14] was “more effective than either agent alone” and the “efficacy against H460 cancer cells in the xenograft model” value [2, 14] was “effective”. It also gave a ka [3] of 774900 M⁻¹ s⁻¹, a kd [3] of 0.002901 s⁻¹ and a ka [4] of 607100 M⁻¹ s⁻¹. The kd [4] was 0.0009533 s⁻¹, the survival of mice ([5]; P=0.0001) was “significantly improved the survival” and the median survival rate ([5]; versus 11 days for vehicle treated mice) was 17 days. It also gave an AUCI ([6]; 5 mg/kg) of 2242.485 µg·h/mL, an AUCT ([6]; 5 mg/kg) of 2242.286 µg·h/mL and a CLF ([6]; 5 mg/kg) of 2.23 mL/h/kg. It also gave a CMAX ([6]; 5 mg/kg) of 67500 ng/mL, an HALF ([6]; 5 mg/kg) of 8.54 h and a KEL ([6]; 5 mg/kg) of 0.0811 h⁻¹. The TMAX ([6]; 5 mg/kg) was 3 h, the VZF ([6]; 5 mg/kg) was 0.02748 L/kg and the AUCI ([6]; 15 mg/kg) was 10692.742 µg·h/mL. For the same molecule, the AUCT ([6]; 15 mg/kg) was 10692.598 µg·h/mL, the CLF ([6]; 15 mg/kg) was 1.40 mL/h/kg and the CMAX ([6]; 15 mg/kg) was 203000 ng/mL. The HALF ([6]; 15 mg/kg) was 14.94 h, the KEL ([6]; 15 mg/kg) was 0.0464 h⁻¹ and the TMAX ([6]; 15 mg/kg) was 3 h. The VZF ([6]; 15 mg/kg) was 0.03024 L/kg, the “% Tumor Reduction vs. Vehicle at Day 21” value [7] was 39.5% and the “slowing of tumor growth” value ([8]; 15 mg/kg, 3 times per week for 3-4 weeks, treatment initiated at 50 mm^3) was “effective at slowing tumor growth”. The “% Tumor Reduction vs. Vehicle at Day 21” value ([8]; UACC Melanoma, M830 alone, IP, 3 times per week, treatment initiated at about 50 mm^3) was 65%, the AUCI ([9]; 5 mg/kg) was 4316.79 µg·h/mL and the AUCT ([9]; 5 mg/kg) was 4315.918 µg·h/mL. It also gave a CLF ([9]; 5 mg/kg) of 1.16 mL/h/kg, a CMAX ([9]; 5 mg/kg) of 86400 ng/mL and an HALF ([9]; 5 mg/kg) of 22.88 h. For the same molecule, the KEL ([9]; 5 mg/kg) was 0.0303 h⁻¹, the TMAX ([9]; 5 mg/kg) was 3 h and the VZF ([9]; 5 mg/kg) was 0.03824 L/kg. For the same molecule, the AUCI ([9]; 15 mg/kg) was 23053.875 µg·h/mL, the AUCT ([9]; 15 mg/kg) was 23052.853 µg·h/mL and the CLF ([9]; 15 mg/kg) was 0.65 mL/h/kg. For the same molecule, the CMAX ([9]; 15 mg/kg) was 330000 ng/mL, the HALF ([9]; 15 mg/kg) was 18.70 h and the KEL ([9]; 15 mg/kg) was 0.0371 h⁻¹. It also gave a TMAX ([9]; 15 mg/kg) of 3 h and a VZF ([9]; 15 mg/kg) of 0.01755 L/kg.
